Test: label from the status in PepcDB records
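Note: failed if final PepcDB status was selected cloned or expressed and not failed if soluble or beyond.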

Row | Sequence | protein production
1 | MATPKLEAYRKKRDFSKTPEPVGNLTAGGNRFVVHKHHATADHYDLRLEVDGVLKSWAVPKGPSLNPADKRLAVETEDHPLDYIDFEGVIPEGEYGGGPMIVWDKGVWAPMGDVDDDLRKGAFKFRLAGEKLNGGWMLARLKRRPGEEDQRNWLLFKERDPAADTSIDILAARPESVKSGRRIEELVEKPKAPPKPVKLNPGALAGAVKAAQPERIEPQLATQTILPPEAEKDSKKPERWLHEIKFDGYRTMAHVADGKVRLVTRGGLDWTKRYGDLPEVFRRLPCRDVIIDGEIVVLDETGVSRFALLQDALSTGAGNSLVFYAFDLLHLNGWNLFDVPLEKRKALLKQLLAGQVSSRSAIQFSDHVLGEGRALYDRASEMGLEGIVSKRISAPYRSGRSKTWTKTKALKAEDFVIVGYTVSEAAEGIASLALGEWADGELEYRGKVGTGFDAQMLKELLARLEPLRAGAAKLEGAPREIIWVRPLLRAHIHYGNRTTDNVLRHAVFKGLRDVELSTPVSMSRKRLISDADLAGISITNPTRRLFGKSGPTKLDLAVYYAMIGDFMLPHILGRPVSLVRCPTGRTQDCFFQRHPFTGMPPSVATFQATNSEGEAKTYLSVEDARGYLALAQFGVVEFHNWGTTRKLLGKPDRVVFDLDPGEGIAWREVVEAAIHIKAELEALALVPFVKTSGGRGVHVVVPVVPKLDWKKFHQATSALATRLAATAPATFTTTMGKDNRIRRIFIDFHRNARSHTWAAPYSLRARTNLPASTPLSWADLETIDAPADLNYSSLPGLLATSGDPWADIDDFARDLPIL | failed
2 | MQSTIRKQLLQVFSEADGEFVSGQTISDKLGCSRTAVWKHMEDLRNEGYELEAVRRLGYRIASKPDKVTANEIQLGLQTKHIGRTVYFEESVESTQHIAAKLAYEGAEEGTIVVAEEQTAGRGRLSRKWHSPKGTGIWMSIILRPSIPVHHAPQLTLLAAVSVAQAIEKCTGVNVGIKWPNDILIQGKKAVGILTEMQADPDKINAVIMGIGINANQKQEHFDEEIQHIATSLAIESGKPIVRAELMQQIFLQLEKLYEEYLQNGFSVIKILWESYAVSIGKEINARTMRETITGVAKGITEDGVLLLEDHEGKVHHIHSADIEIK | failed
3 | METWITSIMADFGYIGIFLLIMIENLFPPIPSEIILTFGGFMTTVSSLNVVMVIIVATLGSVVGAILLYKVASYFGKERLTHIVLKYGRVLRLKESDIERAESFFLKYGSWAVFLCRMIPLIRSLISIPAGMTKMKMSRFLILTTAGSLLWNTVLIGLGALLGESWGEIVVFMDSFSTVIYSIIAVITLLGLGFFFRARFKKTLDEE | failed
4 | NPVILADLDDTLFQTRRKMVDELALAPYKTGALDRSLAPRSFMTQEQAMLVDWMLEHADLIPVTARGTEEMSRVTIPFHSWAITTHGAVVLTPEKVADEQWQHHITQSLTPYKQPLLRLQQSITQLMAERNIDGWARINYEYDDLPIYLVMKHNDSARLDELYAIGDEIEKIFSTKGFYIHRNSNNIAWLPEPIEKGKAVTYLLNKLKAERGVFPVIGFGDSLSDHRFMKLCN | not failed
5 | MPSEAKYTWDQELNEINIQFPVTGDADSSAIKIRIVGKKICVKNQGEIVIDGELLHEVDVSSLWWVINGDVVDVNVTKKRNEWWDSLLVGSESVDVQKLAENKHADMSMLDAEAREVVEKMMHNTSGKDSE | not failed
6 | MTELFIFDREDQLLTTLTESTGLVRALFREELNRVPNQPFAFTIEASSEEAKHVIEEHQVVFRDKEGDLRLFVIKELEDVDGLDGPQTTAICEPAFMELAEHMIVEQSVVNQPAHEALNVALQGTRWTGSVEVNLGNATEHFSYVSAIEAVWNILVTWGGDFKDVVTFNAENRITSHQIKIVQRRGVDRGKRFEIDHNIEQIERTILSYPVTALYGRGASLQGENGEDGSLDFGEVEWRKSAGAPVDKPKGQLWVGDPEALQKYGRKHNGQLLHREGIFQNTNIEDPEELLEKTWEQLQKSSKPEVHYRLSVRLFEHISGYEHEQASLGDTAIAIDRQFSRPIEIQSRIIAIEYDLVDIDGTGMVEMGQFLSLNGMDERLERIIEEIEKNQGKWGSSGTITRDKYPDIKPSAPVNLRAESGFQAIQLYWDYADELYIEHYEVYGSQVSDFVPDSQHLLWRGKVSAFAHFVDKDQQWYYYVRAVNFHGRPSDWSDKVSGSTQRIISDDILFGPDLAERLRELNRISDIIGEGGVNFEQISDHAKALLNQEARQYTDEEIRAVEDAINAELAEKAGLTYVEGKFSLIDSELEAVDGKFVSVSTQLAEIETEISLKAEQTQVDVIEGEITNVAQDLSQLTVSVNGVQSEVTSIRSGIGHLVEIVNGKATEYKLHFSFNASRDYLVLLTRADLTGARNYVAGTFFGRRVSGNVGSGKIEVIFNNSSNGDRASGYFEASEIQTLNGWSMVTCDYKGEKYIALRHQLPNEHDIWNTDTRFYGQIGSDSEMLLPVDNWGGNPDITNIQPFESSRPVATPIMRAETRIDQNSQQIALRATEINSLAGRMTQAEAELSVQATEIAARVEKDGIVTALNLSPEGIRIKGSLIHLDGTTLINDGVIQNAHIANAAITRAKLDTAVIGTAQIEDLAVTSAKIASVNADKINAASLSAISANLGTVTAGVMRSNNNNMELNLNTGTLNMRNTNFTLGSGADIEFTDPGNRLYFKQYDPVGNITRSAGFGIGRSINDRFPYGFLGTTNTTKPNPIDDQNFTGFITNTNQRMITDGIGNSVVGRIFHIRDQAVSFRKGVAFNFSDSTTMNIFPINTGSYDYVFGSNNNKWKDIHADNIRAAQVYIRNPVGTGGYLFETQPESGSATMVFRGINVSFSDWNYNLGTSSAPWNFGRINHLRPSGSSHSVGSFSERYNFVYTNTLVEGSDIKIKSDIKNSFLGLAFIKDLRPVDFQLVENEQYKTGLIAQEVAAELEHHGIDLEKQTIVTINDSVMGVSYTQLIAPTIKAIQELDSYVRDEVNSLKLENQRLKEKITKLEEKIA | failed
7 | VSDRPAGRMPLTVHRNVGRWLSEILHASIRDTGVSSRIEFVRRTLHGWVREEYSETELPNAVYRNLYFPVLDAQPAHAGSGKIETISECDRLKNLVRNVTDTLVENYPQGLESEALLIALDGVKLELARIRKDIEMYGDPRKR | not failed
8 | SVNAATVDLRIMETTDLHSNMMDFDYYKDAATEKFGLVRTASLIEQARAEVKNSVLVDNGDVIQGSPLGDYMAAKGLKEGDVHPVYKAMNTLNYAVGNLGNHEFNYGLDFLHKALAGAKFPYVNANIIDAKTGKPMFTPYLIQDTRVVDSDGQIHTLRIGYIGFVPPQIMTWDKANLNGKVTVNDITETARKYIPEMRAKGADVVVVVAHSGLSADPYQAMAENSVYYLSQVPGVDAIMFGHAHAVFPGKDFANIKGADIAKGTLNGVPAVMPGMWGDHLGVVDLVLNNDSGKWQVTQSKAEARPIYDAVAKKSLAAEDGKLVSVLKADHDATREFVSK | not failed
9 | QIAAVDPAGMSVIRDRNQLFRVNSAGEVENTYTLKVINKTQQVQEYNLDVKGLNDVSWYGKQTIQVEPGEVLNLPMSLGADPDKLNSAITTIQFILTDKSNEFTIEVESRFIKKL | not failed
10 | MAQKVEAGGGAGGASWDDGVHDGVRKVHVGQGQDGVSSINVVYAKDSQDVEGGEHGKKTLLGFETFEVDADDYIVAVQVTYDNVFGQDSDIITSITFNTFKGKTSPPYGLETQKKFVLKDKNGGKLVGFHGRAGEALYALGAYFATTTTPVTPAKKLSAIGGDEGTAWDDGAYDGVKKVYVGQGQDGISAVKFEYNKGAENIVGGEHGKPTLLGFEEFEIDYPSEYITAVEGTYDKIFGSDGLIITMLRFKTNKQTSAPFGLEAGTAFELKEEGHKIVGFHGKASELLHQFGVHVMPLTN | failed
11 | MGNRSTADADGLLAGRGPAAGASAGASAGLAGQGAAALVGGVLLIGAVLAGNSLVCVSVATERALQTPTNSFIVSLAAADLLLALLVLPLFVYSEVQGGAWLLSPRLCDALMAMDVMLCTASIFNLCAISVDRFVAVAVPLRYNRQGGSRRQLLLIGATWLLSAAVAAPVLCGLNDVRGRDPAVCRLEDRDYVVYSSVCSFFLPCPLMLLLYWATFRGLQRWEVARRAKLHGRAPRRPSGPGPPSPTPPAPRLPQDPCGPDCAPPAPGLPRGPCGPDCAPAAPGLPPDPCGPDCAPPAPGLPQDPCGPDCAPPAPGLPRGPCGPDCAPPAPGLPQDPCGPDCAPPAPGLPPDPCGSNCAPPDAVRAAALPPQTPPQTRRRRRAKITGRERKAMRVLPVVVGAFLLCWTPFFVVHITQALCPACSVPPRLVSAVTWLGYVNSALNPVIYTVFNAEFRNVFRKALRACC | failed
